Kd data for 1 molecule are collected here from US20250073269A1 (CAS LAMVAC GUANGZHOU BIOMEDICAL TECHNOLOGY, published 2025).

Where “and” joins values, the source holds several entries; their conditions need not be identical. Equal entries are not always repeated.

Test [1] concerns the target T1, catenated VAR2CSA recombinant protein AXVB (Plasmodium, isopeptide bond between SpyTag and SpyCatcher (intra- or intermolecular coupling, cyclization and catenation)).
T1 construct: also called AXVB protein; AXVB navigator protein
Nature of the test: ELISA, AXVB coated, 5H4 mAb titrated; single experiment of three. (An ELISA detects its analyte on a solid surface through an enzyme-linked reagent.)
Experimental: (§1) (1) Antigen coating: The AXVB and rVAR2 proteins were diluted to a final concentration of 20 nM with the Na₂CO₃—NaHCO₃ carbonate coating buffer (with a pH of 9.6) which was filtered and sterilized by the 0.22 μm filter membrane, respectively, 100 μL of each protein sample was added to a 96-well Elisa plate (JET BIOFIL, Guangzhou, China, Cat. #FEP101896), with three replicates per protein sample, and the Elisa plate was covered with a sealing film and incubated at 4° C. overnight. […] (2) Antigen blocking: The coating solution in the Elisa plate was removed, the Elisa plate was washed with a PBST solution (1×PBS+0.05% v/v polyoxyethylene sorbitan fatty acid ester, with a pH of 7.2-7.4) three times, the liquid was patted dry, 200 μL of PBST solution containing 5% BSA was added, and the Elisa plate was then incubated at room temperature for 2 hours. […] (3) Primary antibody incubation: The antigen blocking solution was removed, the Elisa plate was washed with the PBST solution three times, and 100 μL of 5H4 mAb at different concentrations which was diluted with an antibody dilution solution (1×PBS containing 0.1% BSA) in different ratios was added to each well.

The target in test [2] is T2, wild-type VAR2CSA recombinant protein (rVAR2) (Plasmodium).
T2 construct: Monomer of about 73.1 kDa including the tag, with no intra- or intermolecular coupling; Prepared as in CN110325551B; also called rVAR2 protein; monomeric VAR2CSA recombinant protein
T2 chain: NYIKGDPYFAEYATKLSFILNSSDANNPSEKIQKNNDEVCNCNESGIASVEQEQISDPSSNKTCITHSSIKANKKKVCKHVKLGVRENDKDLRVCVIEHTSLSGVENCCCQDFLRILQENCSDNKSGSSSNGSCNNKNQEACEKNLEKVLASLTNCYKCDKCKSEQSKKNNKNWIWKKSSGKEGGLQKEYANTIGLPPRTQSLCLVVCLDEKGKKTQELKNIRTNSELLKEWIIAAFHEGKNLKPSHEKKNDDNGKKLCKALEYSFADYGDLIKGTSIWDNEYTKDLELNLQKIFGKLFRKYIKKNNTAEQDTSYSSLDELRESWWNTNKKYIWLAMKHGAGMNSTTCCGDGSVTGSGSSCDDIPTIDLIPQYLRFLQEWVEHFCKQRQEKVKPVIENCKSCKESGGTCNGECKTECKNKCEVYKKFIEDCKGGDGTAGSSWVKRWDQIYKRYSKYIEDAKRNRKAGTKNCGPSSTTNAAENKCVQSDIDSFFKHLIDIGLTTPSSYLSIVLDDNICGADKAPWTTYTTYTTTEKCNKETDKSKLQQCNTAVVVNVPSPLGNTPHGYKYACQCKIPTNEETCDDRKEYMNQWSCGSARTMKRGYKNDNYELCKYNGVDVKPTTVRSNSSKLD
In words: ELISA, rVAR2 coated, 5H4 mAb titrated; single experiment of three (FIG. 11).
Experimental: as §1

Test [3] has as its target T1, catenated VAR2CSA recombinant protein …. Nature of the test: ELISA, AXVB coated, 5H4 mAb titrated; single experiment of three (FIG. 10).
Experimental: as §1
For test [4], the target named is T2, wild-type VAR2CSA recombinant protein …. Nature of the test: ELISA, rVAR2 coated, 5H4 mAb titrated; single experiment of three.
Experimental: as §1
For test [5] the target is unchanged. In words: ELISA, rVAR2 coated at 20 nM, 5H4 mAb titrated, non-linear regression; mean of three experiments.
Test [6] addresses T1, catenated VAR2CSA recombinant protein …. In words: ELISA, AXVB coated at 20 nM, 5H4 mAb titrated, non-linear regression; mean of three experiments.

B1: monoclonal antibody 5H4 (5H4 mAb) (antibody, V domains shown)
VH: EVKLVESGGGLVKPGGSLKLSCAASGFTFSNYAMSWVRQSPERRLEWVAEISITGRYTYYPDTVTGRFTISRDNAKNTLYLEMSSLRSEDTAMYYCTREGYDYAPSWFAYWGQGTLVTVSA
VL: DVVMTQTPLSLPVSLGDQASISCRSGQTLVHRNGITYLEWYLQKPGQSPKLLIYKVSNRFSGVPDRFSGSGSGTDFTLKISRVEAEDLGIYYCFQGSHVPRTFGGGTKLEIK
notes: Mouse monoclonal antibody, detected with anti-mouse IgG; also called mouse anti-rVAR2 protein monoclonal antibody 5H4 mAb
Broadly, the Kd is the equilibrium constant for the complex coming apart. As for B1, the Kd in test [1] is 73 nM and 100 nM; in test [2] it was 136 nM; in test [3], 77.8 nM; in test [4], 123 nM and 174 nM; in test [5], 144 nM; in test [6] it was 83.7 nM.
